The series in a line: yeast display, Sf9 membrane polyspecificity reagent, FACS + sequencing; frameworks hold sequencing errors. In short, it runs like this: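 A synthetic nanobody library was expressed on Saccharomyces cerevisiae BJ5465 by galactose induction for 36–48 hours. The library was stained for 1 hour at 4 °C with 10% biotinylated, detergent-solubilized Sf9 membrane reagent and enriched with streptavidin microbeads before FACS. Low and high (top ~1%) gates were set on anti-HA fluorescence for expression and streptavidin fluorescence for reagent binding, and each polyreactivity label reflects the gate of origin.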
Consider “QVQLVESGGGLVQAGGSLRLSCAASGRTFWFYGMGWYRQAPGKERELVADITSGGGTYYADSVKGRFTISRDNAKNTVYLQMNSLKPEDTAVYYCNAYKTHVVPATYDSEEYWGQGTQVTVSS”, for which the “polyreactivity (PSR sort gate)” value was “low polyreactivity”. The result for “QVQLVESGGGLVQAGGSLRLSCAASGRTFWGNAMGWYRQAPGKERELVASISSRGSSTYYADSVKGRFTISRDNAKNTVYLQMNSLKPEDTAVYYCAARTHYFPWPWYVWDYDSWGQGTQVTVSS” reads “low polyreactivity”; that for “QVQLVESGGGLVQAGGSLRLSCAASGRTFWLYAMGWYRQAPGKARELVASITRDGTSTYYADSVKGRFTISRDNPKNTVYLQMNSLKPEDTAVYYCAAVYHSKSRTIYWGQGTQVTVSS”, “high polyreactivity”. Take “QVQLVESGGGLVQAGGSLRLSCAASGRTFWLYAMGWYRQAPGKEREFVASISSSGDSTYYADSVKGRFTISRDNAKNTVYLQMNSLKPEDTAVYYCAARPSRRYLRNGLDYWGQGTQVTVSS”: the “polyreactivity (PSR sort gate)” value is listed as “high polyreactivity”. The result for “QVQLVESGGGLVQAGGSLRLSCAASGRTFWNYAMGWYIQAPGKEREFVAVIRFSDGSTYYADSVKGRFTISRDNAKNTVYLQMNSLKPEDTAVYYCAAKGPRRWGSGFDYWGQGTQLTVSS” reads “low polyreactivity”; that for “QVQLVESGGGLVQAGGSLRLSCAASGRTFWRNTMGWYRQAPGKQREFVAASTFSGVRTYYADSVKGRFTISRDNAKNTVYLQMNSLKPEDTAVYYCAKSRQYIGGFDYWGQGTQVTVSS”, “high polyreactivity”; that for “QVQLVESGGGLVQAGGSLRLSCAASGRTFWRYAMGWYRQAPGKERELVAAISSGGRTNYADSVKGRFTISRDNAKNTVYLQMNSLKPEDTAVYYCAVKTVRSSSRNYWGQGTQVTVSS”, “high polyreactivity”. Next, “QVQLVESGGGLVQAGGSLRLSCAASGRTFWSNAMGWYRQAPGKEREFVAVISRSGSTTYYADSVKGRYTISRDNAKKTVYLQMISLKPEDTAFYNCAADRVRSYFSRYYSTPLDYYWGQGTQVTVSS”: “high polyreactivity”; “QVQLVESGGGLVQAGGSLRLSCAASGRTFWSNAMGWYRQAPGKERELVAAISGGARTNYADSVKGRFTISRDNAKNTVYLQMNSLKPEDTAVYYCAATPRYWQSRYDYWGQGTQVTVSS”: “high polyreactivity”; “QVQLVESGGGLVQAGGSLRLSCAASGRTFWSYAMGWYRQAPGKEREFVAAISYSGSSTYADSVKGRFTISRDNAKNTVYLQMNSLKPEDTAVYYLLRGQGTQVTVSS”: “low polyreactivity”. Next, “QVQLVESGGGLVQAGGSLRLSCAASGRTFWVNAMGSYRQAPGKERELVATIRGSGVSTYYADSVKGRFTISRDNAKNTVYLQMNSLKPEDTAVYYCAAGFAGGYGVTFDYCGQGTQVTVSS”: “low polyreactivity”.

Take “QVQLVESGGGLVQAGGSLRLSCAASGRTFWVNTMGWYRQAPGKERELVAGITRSGTRTYYADSVKGRFTISRDNAKNTVYLQMNSLKPEDTAVYYCATGPWRYRYDYWGQGTQVTVSS”: the “polyreactivity (PSR sort gate)” value is reported as “low polyreactivity”. The result for “QVQLVESGGGLVQAGGSLRLSCAASGRTFWVYAMGWNRQATGKERELVATISKSAGITSYADSVKGRFTFSRDNAKNTVYLQMNSLKPEDTAVYYCAADKSYRRVYYWGQGTQVTVSS” reads “low polyreactivity”. Turning to “QVQLVESGGGLVQAGGSLRLSCAASGRTFWVYAMGWYRQAPGKEREFVAAISGSVGSTYYADSVKGRFTISRDNAMKTVYLQMNSLKPEDTAVYYCAARQRRSEYGYWGQGTQVTVSS”, the “polyreactivity (PSR sort gate)” value is listed as “high polyreactivity”. On to “QVQLVESGGGLVQAGGSLRLSCAASGRTFWVYAMGWYRQAPGKERELVASIRRGGSTYYADSVKGRFTISRDNAKNTVYLQMNSLKPEDTAVYYCAAERPYKTFGYGYWGQGTQVTVSS”, for which the “polyreactivity (PSR sort gate)” value was “high polyreactivity”. For “QVQLVESGGGLVQAGGSLRLSCAASGRTFWYNAMGWYRQAPGKERELVATISPGGRTYYADSVKGRFTISRDNAKNTVYLQMNSVKPEDTAVYYCDASSSFSRYGVVPYYYWGQGTQVTVSS”, the “polyreactivity (PSR sort gate)” value is “high polyreactivity”. The result for “QVQLVESGGGLVQAGGSLRLSCAASGRTFWYYAMGWSRQAPGKERELVAGITFTGGRTYYADSVKGRFTISRDNAKNTVYLQMNSLKPEDTAVYYCAAAGLDVGRKDRDGYWGQGTQVTVSS” reads “low polyreactivity”.

As to “QVQLVESGGGLVQAGGSLRLSCAASGRTFWYYAMGWYRQAPGKERELVAAISYSGDGTYYADSVKGRVTISRDNAKNTVYLPMHSLKPEDTAVYYCAAEWYEPTLPTAWSEYEYWGQGTQVTVSS”, the “polyreactivity (PSR sort gate)” value is “high polyreactivity”. Next, “QVQLVESGGGLVQAGGSLRLSCAASGRTFWYYAMGWYRQAPGKERELVARISTGGSTNYADSVKGRFTISRDNAKNTVYLQMNSLKPEDTAVYYCAARPVWRRPSKFDYWGQGTQVTVSS”: “high polyreactivity”; “QVQLVESGGGLVQAGGSLRLSCAASGRTFWYYGMGWYRQAPGKERELVAAISRSGGRTYYADSVKGRFTISRDNAKNTVYLQMNSLKPEDTAVYYCVASYRRTFDYWGHGTQVTVSS”: “high polyreactivity”; “QVQLVESGGGLVQAGGSLRLSCAASGRTFWYYTMGWYRQAPGKEREFVAAIRGSGTSTYYADSGKARFTISRDNAKNNVYLQMNSLKPEDTAVYYCAAESPVYHLVTYDYWGQGTQVTVSW”: “high polyreactivity”. The result for “QVQLVESGGGLVQAGGSLRLSCAASGRTFWYYTMGWYRQAPGKERELVAAITRRGGSTYYADSVKGRFTLSRDKAKNTVYLQMNSLKPEDTAVYYCARGGSRLTQGWLVTPYDYDYWGQGTQVTVSS” reads “high polyreactivity”; that for “QVQLVESGGGLVQAGGSLRLSCAASGRTFWYYTMGWYRQAPGKERELVAAITSGGSTYYADSVKGRFTISRDNAKNTVYLQMNSLKPEDTAVYYCAAYLYWDFTYYYALVDYWGQGTQVTVSS”, “high polyreactivity”; that for “QVQLVESGGGLVQAGGSLRLSCAASGRTFWYYTMGWYRQAPGKERELVASITYRGGSTYYADSVKGRFTISRDNAKNTDYLQMNSLKPEDTAVYYCNARYKRYSYDYWGQGTQVTVSS”, “high polyreactivity”. On to “QVQLVESGGGLVQAGGSLRLSCAASGRTFYANTMGWYRPAPGKERELVASITSRGTSTYYADSVKGRFTISRDNAKNTVYLEMNSLKPEDTAVYYCAKAFIAPQYAWGGDYWGQGTQVTVSS”, for which the “polyreactivity (PSR sort gate)” value is on record as “high polyreactivity”. Next, “QVQLVESGGGLVQAGGSLRLSCAASGRTFYAYAMGLYRQAPGKERELVASIRWSSGSTNYADSVKRRFTISRDYAKITVYLQMNILKAEDTAVYYCAARYYYYGGHRLYWGQGTQLTVSS”: “high polyreactivity”; “QVQLVESGGGLVQAGGSLRLSCAASGRTFYAYAMGWYRQAPGKERELVAAITSGASTYYADSVKGRFTISRDNAKNTVYLQMNRLKPEDTAVYYCAKRVRYYKPGYDYWGQGTQVTVSS”: “low polyreactivity”. Turning to “QVQLVESGGGLVQAGGSLRLSCAASGRTFYDYAMGWYRQAPGKERELVASITGGASTNYADSVKGRFTISRDNAKNTVYLQMNSLKPEDTAVYYCAGRLYRGNVWDILLGGDYWGQGTQVTVSS”, the “polyreactivity (PSR sort gate)” value is “low polyreactivity”. The result for “QVQLVESGGGLVQAGGSLRLSCAASGRTFYFNAMGWYRQAPGKERELVAGISGDGSTNYADSVKGRFTISRDNAKNTVYLQMNSLKPEDTAVYYCAARIRPGYRTWYYSWGQGTQVTVSS” reads “low polyreactivity”. For the sequence “QVQLVESGGGLVQAGGSLRLSCAASGRTFYFNGMGWSRQAPGKETELVAVITKSGGDTYYADSVKGRFTISRDNAKNTVYLQMNSLKPEDTAVYYCAAVYGYYTYWIPGFTWAVDYWGQGTQVTVSS”, the “polyreactivity (PSR sort gate)” value was “low polyreactivity”. Next, “QVQLVESGGGLVQAGGSLRLSCAASGRTFYFNGMGWYRQAPGKERELVAAIRWRDSNTYYADSVKGRFTISRDNAKNTVYLQMNSLKPEDTAVYYCNVGIYSYGINGRYDYWGQGTQVTVSS”: “high polyreactivity”; “QVQLVESGGGLVQAGGSLRLSCAASGRTFYFNGMGWYRQAPGQERELVARISRRGGSTYYADSVKGRFTISRDNAKNTVYLQMNSLKPEDTAVYYCNTANYLLYDWGQGTQVNVSS”: “high polyreactivity”. On to “QVQLVESGGGLVQAGGSLRLSCAASGRTFYFYAMGWSRQSPGKERELVADIRGISGSTYYADSVKGRFTISRDNAKNTVYLQMNSLKPEDTAVYYCAADPYLGRAWRGRGYYWGQGTQVTVSS”, for which the “polyreactivity (PSR sort gate)” value was “high polyreactivity”. Next, “QVQLVESGGGLVQAGGSLRLSCAASGRTFYFYAMGWYRQAPGKERELVAAITVRGGSTYYADSVKGRFTISRYNAKNTVYLQMNSLKPEDTAVYYCAADPYPYYGAYDYWGQGTQVTVSS”: “high polyreactivity”. Next, “QVQLVESGGGLVQAGGSLRLSCAASGRTFYFYAMGWYRQAPGKERELVASISWSGGRTYYADSVKGRFTISRDNAKNTVYLQMNSLKPEVTSVYYSAAALWTGYSWGQATQVTVSS”: “low polyreactivity”.

As for “QVQLVESGGGLVQAGGSLRLSCAASGRTFYGNAMGWYRQAPGKERELVAAISWSGCGTYYADSVKGRFTISRDNAKNTVYLQMNSLKPEDTAVYYCARTLFGRSANRYGYWGQGTQVTVSS”, the “polyreactivity (PSR sort gate)” value is recorded as “high polyreactivity”. The result for “QVQLVESGGGLVQAGGSLRLSCAASGRTFYGNAMGWYRQAPGKERELVAGITRGGSTYYADSVKGRFTISRDNAKNTVYLQMNSLKPEDTAVYYCAATRYYSWGSRGGYWGQGTQVTVSS” reads “high polyreactivity”. Next, “QVQLVESGGGLVQAGGSLRLSCAASGRTFYGNGMGWYRQAPGKRELVAAISYSGASTYYADSVKGRFTISRDNAKNTVCLLMNSLKPEDTAVYYCAAQPSVYCSLFTRASEDYWGQGTQVTVSS”: “high polyreactivity”; “QVQLVESGGGLVQAGGSLRLSCAASGRTFYGNVMGWYRQPPGKERELVATISFSAGSTYYADSVKGRFTISRDNAKNTVYLQMNSLKPEDTAVYYCNADHTDYATGGGNYWGQGTQVTVSS”: “low polyreactivity”. Next, “QVQLVESGGGLVQAGGSLRLSCAASGRTFYGYAIGRYIQAPGNERELVAAISRRGGSTNYADSVKGRFTISRDNAKNTVFLQMNSLKPEDTAVYYCNANYYRTHYDYWGQGTQVTVSS”: “high polyreactivity”; “QVQLVESGGGLVQAGGSLRLSCAASGRTFYGYAMGWYRQAPGKERELVAAISFSGGRTYYADSVKGRFTISRDNAKNTVYLQMNSLKPEDTAVYYCAAVPRGWFSYPSGYDYWGQGTQVTVSS”: “high polyreactivity”.

These data come from the nanobody polyreactivity screen of Harvey et al. (2022).
